Reference: the domain aggregation screens of Martell et al. (2025)

assay: soluble fraction after stress (log2 fold change); higher = more stays soluble; pooled small domains, quantitative proteomics; settings: stress: 75 degC
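Also: 20 min heating vs room temperature control held 20 min.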

Row | Sequence | soluble fraction (log2)
1 | HMVVVPPPATPKPGDVTGDNKINGYDLSILLSNWKRPGATLAQGDLNKDGVVNGLDLSIMLLNWG | 0.274
2 | HMVVYDAELLLNINPGMSYEEVKEMLGDPGMIIAGNDAENSVYRWSTGGISFMGRFENGALIRKSIISP | -0.862
3 | HMVWNVEQIKRAVDQLPDGYRVVFTLYLFEGYDHREIADILGISEGGSKSQFNRAKSKLKEILTAMS | -2.19
4 | HMVWTAGEVVERIRERVGHPATIRELMQVLTIPPEDRHRFRRRIMQLVEAGELIRIRGNRYGLAD | -2.59
5 | HMVYNGYYAKSFNGYVVILNGDEKTVYEYTQIPIHLLPEDIRSSVMSGYYLENETDLYNFLENYS | -3.24
6 | HMWAVDFVLLDKDDQRIGNAVAYRDDRTKGMDEEVYRTVPEEELYASTGIQKQIFNSIYQLMAWKK | -0.0106
7 | HMWDRFGELDSAEEINRIAAAELREGDIDALKVLAEENGLDKDDVEDYIDRLIDELTTPELAAIGKLDV | 0.275
8 | HMWKQISSEAELLPAVRSVIQANPGEAEKLRNGEMAPLEFLTGLVMKKTNGMAVPQIVKTLIKKELKI | 0.0414
9 | HMWKSEAGKKIIESLAQKYNKSNAQIILRWHIQMGYIVIPGARSENHIKENINIFDFKLTNEEINNILKLN | -0.242
10 | HMWMTAQDFRNSSLPWSATTSYNEGQSVRVVDGSNTYYYIAIVKTQPGQSPTTHPTSWREVDA | -1.16
11 | HMWNLPDPVVRPEGNVTVYENFKNTVEVLNREADLVLKFLQNEFGTSANIDDTGRARLTGSFSTDRVSSVI | -0.328
12 | HMWSNTAVIDRIRQLHEEGQPISSQSVQVNHKSLYMAAIKRFRGWKRAVEAAGIDYRQIRLR | -2.29
13 | HMWWTPIILRDALFGVQRFEDFQKNLDVSRATLSSRLTRLVDEGLMEKVEYQQHPVRHEYVLTEKGR | -0.234
14 | HMYAGTWTTESGQWKYRQDDGTYAKGWLQDTDGRWYYFDANGRMLSNTATPDGYQVGEDGAWVNH | -0.338
15 | HMYAMTAEDWIVSGNRKYINDDLQGAIADYTKAIEIDPNYAAIYLVRGKAKYELKNYQGAIEDYTKAIE | -1.29
16 | HMYAPKIETIQVPQDKIREVIGTGGKVIREIVETTGAKIDIGDTGLIKVASSDGEAIRAALDWINSIVAE | 0.278
17 | HMYATQLLQLEEMGFFDRAENIRALRATNGNVNAAVERL | -0.202
18 | HMYDASELNKALEEAKKLDLNNYTEESSEALKNAISKAEEALLSKDKETINSALEELNKAMDSL | 0.512
19 | HMYDEAAIRKAVMTFVTDNRDERLDLAKISAVLTSKFGNINFDELGYKRFSSFIDSFPELRRNNTFVSLR | -0.883
20 | HMYDFGVILQKLRKEKGFTQEQLARLIHKESSIISRYEKGLQNPTFETVKEFAAIFNVSMDYLAG | -1.49
21 | HMYEGNEFSSTGMFREDILAITAVHPMREDAVTELLARSNESEETLEMMIDEELLRRVAYGNHNYYMRRFR | -0.611
22 | HMYEHLKALRESLGMTQAEFGESVGVAKSTYNNYEIGARDPKSDFWIAVAQRYGVTIDYLMGFSDDPKKT | -1.76
23 | HMYELSDTEWKIIEQVGLGASNKEIAASLHFSEGTIRNYLSVILDKLSLRDRTQLAILYVKMN | -1.11

Row | Sequence | soluble fraction (log2)
24 | HMYEPPTEDEKRVLSLLATRESIVRSDVDRLLGVSQSTANRILKQMIEKYLISQEGTGKNTKYIK | -0.263
25 | HMYESAMSDLHARIMSSDDPHGEIYKMLTQSGPEAKYIQDMYNETSIDRGLHPDDDFEDIIDAMVAELDD | -0.68
26 | HMYEVVPNMKGLSYEQAATALRTAGLEPELSDSIYDDKTRPGTVLEQSPRANTKVKPGRTVYLTVNAF | 0.0171
27 | HMYFFNTFTQRLFDNPELTQEEAIRQMYPGISGVQTAEKLQENFMADVYIQAAIRQEIVVQLIR | -0.485
28 | HMYGSLGEYELAAVQWIYGKGKITTRELSSLIGKGLTLSSKTLRGLAAKGILEWHGNSKNDPSQFYSLP | -2.42
29 | HMYHADLIGLEARSTAGDKLGEVNAVYNFGAGDLIEIKMTDGNLEMLPFTRQYVPTVSIKDGFIIVQM | -1.32
30 | HMYHIYPVADNDTPKLSADRLEYSLSNALLTNKLLNIDEIKKIYNDVILDKDEDGTLELSFKS | 0.127
31 | HMYIDANTALLAKRIQAKNGFLPLSDKSTAEEIYAEFGISKKAFKKALGALYKERLVRIGDEGVVWV | -2.46
32 | HMYINVQNARTIASFRSSLWRMHRDFTNQGYITADGLKTFLEMGKLYEDAGGNDIYHSKLLPEITALEIKY | -2.84
33 | HMYKDVVVPNTVGDSEEKAYQTLSALGLVVNITYDEDASKSDRVVTSQNPTNKTIKEGESVNIVVNKQP | 0.573
34 | HMYKIDFAEGDRVIIKGGAFSGLRATVVSLHPEKGMAKIKVYMFGDRETLVDIEVSQLEKDK | -0.785
35 | HMYKTKVDIAYDMLMERITEGVYKPGEKLVITHISKELGISDIPVREAIRRLESEGYVKILPNQGAIVYD | -0.671
36 | HMYLGRKATLLSSISGEKMGNAEVLADGNLMSIYVKSLTGEPLSYGSTVLIIKHSEDQNFYLVQN | -3.54
37 | HMYLQKGISNGKVYLSIVHGYRDPVTKKVRRKTIRSLGYLEDLEKQYADPIKHFEAVVAKMNEEEALE | -1.88
38 | HMYLSNPTYRGDSLVDALTQIGVDASFASRRDLARKNGIENYTGSAKQNLELLQLLREGRLR | 0.402
39 | HMYLYADIYKKLEEKIKNMEVGEKLPSERAMVQEYGVSRNVLREALVLLSERGLIEIRPGKGSYVTNQQ | -1.17
40 | HMYNKKAYVNTNSDFLNVRSEASTESSVVDKLARGTEVNIVGNIQNGFYPIVLNEKNAWVSSDWISFEKPT | 0.053
41 | HMYNNDEIEKIQTMYNAIYQLNDIEKALIMLFLEDKSYKEIAEIMGISEGNARIKMMRTKDKLKNLISKN | -0.527
42 | HMYNNGYVNSDRVNFRKGASTNSDIYKVLDKNTSVTILDYEGDWSKVKINDTVGYVYTKYITAG | -0.368
43 | HMYNTDAMGVRIGELRRAKGLTQEAFAKTLGISAQAVSKWETGLGFPDISLLPMIAETLGTKIETLFGAE | -0.299
44 | HMYPATGTVVTAGGHLNMRSEPDRSGAILARIPNGTALTLTGKNGDWYAATYAGRSGYVSAQYISLS | -0.421
45 | HMYPDNSGDIQQLAQNIFRQENVSVDRDGLALISSRLGSDHAATRSEIEKLALLAGPGGTLTFETISEVLG | -0.145
46 | HMYPEDMMSLMRRALRLINHLESNRKDRHNSRQLELTESKIRRLARYYKGRGLIETEWAYKRDQLRLLV | -0.532

Row | Sequence | soluble fraction (log2)
47 | HMYPIYDYISNMYLGKHLNAGMSLEEARGIMDEMLEKLLFDVPEEYHIDRDHFYEYLKKYYTERFSA | -1.73
48 | HMYPQLIGFKVIDEDKGEVGVVKEVSESMHQILLTVMKGKKEILIPLAEEFITKVNRHKKELFMVLPDG | -0.192
49 | HMYRLDVEISDEIKRDIDEETLSEIKGIIAEDPRPSYQNDETRIYRFTFAGREISFRVKDRTATVTEIL | -0.921
50 | HMYRPLYQQVYDFLVKQIAAGEWGPGESLPSEQALAGRLNVSQGTVRKALDALAADSLIDRRQGKGTYVAE | -0.236
51 | HMYRPQQEFTMRDLFQNNLNGSESASVRRDALGAELGIGYGNAKRFLERLNHYGVSREEFTAALEKLESE | -0.522
52 | HMYRSGGYTGAGKDDEEAGVVHRNEFVNTADAVRNPHVKRFLDVFNVAQKDGTIRMLNTSQILERARLDA | 0.115
53 | HMYRYGETPMVVVPDLIGRTVSDIYEEMNADFRLEKFGNGNTVISQAPKPGERVEQGSVIRVYLSGQDQ | 0.0556
54 | HMYSDERLQTFMELLPFFVEELSNKHVTRYNVWQNYREAYPNGYGRSQFFFHLGQNLEAKKK | -1.34
55 | HMYSIKEFSFEVTTPGQRLDLFLSEELIGQTRSSIQNLILKKYVTVNGQVSKASYKVKTGEFISVKIPV | -3.1
56 | HMYSINKTEFGERIKSAREELKMTQTQLAQLLKTSQTTVAKYEHGEQIPRADVLATISKATGKSTDWLLFG | -0.268
57 | HMYSKQRELIMEAVFKNRVHPTAEYVYKLLKKDHPELSLGTVYRNLNYWAENNMLKKINVPGGSDRFDGT | 0.0438
58 | HMYSLGPKERSIVSFIANRPGSRSGQIAKSLQIPLPTIKRILNGLVENKVIARHGIGAGTNYVVEDQA | -0.711
59 | HMYSMSAPMPGVILEIKVAPGDQVNKGDVVMVLEAMKMKNDLHAARTGTVESIDINSGEQVKYGQVLLRFV | -0.225
60 | HMYSQIGYGSSGSDVRKLQEILNGKGYNLSVDGQFGAKTKSAVRDYQSKNGLSVDGIVGVNTWGKLT | -0.0992
61 | HMYSYNKEEVGKRIKSIRQQKGLTQESFGELFGASKGNVATWEKGISLPNASRLREIADLVSITVEELLYG | -0.735
62 | HMYTLGEESDGTVRLLELYDIIKNKNEKIFVVDELDRSLHPNLTFNFVKKYLSIENKSQLIVSTH | 0.0677
63 | HMYVKKSSFVKKSLNNYEFKITDNTNDLLIFYKGMLPDLFREEQGIVVEGLIDKNNNIVASKV | 0.0603
64 | HMYVSGVPAITSIERVSTPGRRVYAGYTTVPKVIGGMGVSILTTSRGVMTDAEARRQKVGGELLAKV | 0.234
65 | HMYVTGSAIRRLREKRKLTQAQLAAALSVSDKTVSKWETARGLPDITLLEPLARALQVSVPELLSGEEV | -1.58
66 | HMYVVLYPGMARDEAVQVMNELQSRGIDYYEKNGNIYVPKTDENSLRMELANLGYPKTTNNYD | -0.0096
67 | HMYYHQIIGLDVVDENGNTLGKIKEILSPGANDVWVVKRKQKNDLLLPVIDDVIKDVDLAAGKVHVELLEG | -0.269
